The target in one assay is T1, collagen type I (UniProt P02454 152-1207; P02466 86-1125).
T1 construct: collagen type I, alpha-1 chain; collagen type I, alpha-2 chain; two alpha-1 chains and one alpha-2 chain, and rat as the source, are surmised; also called Collagen I (Gibco); native collagen; source: bought: Gibco
The assay can be described thus: ELISA; Collagen I (Gibco) coated 96-well plates; LAIR-MSA fusion proteins in PBSTA for 4 h at room temperature; detected with HRP-conjugated anti-6xHis; mean, n = 2. (In an ELISA, binding on a coated surface is turned into a signal by an enzyme label.)

Assay [1] concerns the target Collagen I (Gibco), coated on 96-well plates (UniProt P02454 152-1207; P02466 86-1125). Description: ELISA.

Read-outs that look alike come from different tables or passages of the source. Where only a bound is given, the exact number is not on record here.

T1 sequence (P02454 152-1207, chain 1 of 2): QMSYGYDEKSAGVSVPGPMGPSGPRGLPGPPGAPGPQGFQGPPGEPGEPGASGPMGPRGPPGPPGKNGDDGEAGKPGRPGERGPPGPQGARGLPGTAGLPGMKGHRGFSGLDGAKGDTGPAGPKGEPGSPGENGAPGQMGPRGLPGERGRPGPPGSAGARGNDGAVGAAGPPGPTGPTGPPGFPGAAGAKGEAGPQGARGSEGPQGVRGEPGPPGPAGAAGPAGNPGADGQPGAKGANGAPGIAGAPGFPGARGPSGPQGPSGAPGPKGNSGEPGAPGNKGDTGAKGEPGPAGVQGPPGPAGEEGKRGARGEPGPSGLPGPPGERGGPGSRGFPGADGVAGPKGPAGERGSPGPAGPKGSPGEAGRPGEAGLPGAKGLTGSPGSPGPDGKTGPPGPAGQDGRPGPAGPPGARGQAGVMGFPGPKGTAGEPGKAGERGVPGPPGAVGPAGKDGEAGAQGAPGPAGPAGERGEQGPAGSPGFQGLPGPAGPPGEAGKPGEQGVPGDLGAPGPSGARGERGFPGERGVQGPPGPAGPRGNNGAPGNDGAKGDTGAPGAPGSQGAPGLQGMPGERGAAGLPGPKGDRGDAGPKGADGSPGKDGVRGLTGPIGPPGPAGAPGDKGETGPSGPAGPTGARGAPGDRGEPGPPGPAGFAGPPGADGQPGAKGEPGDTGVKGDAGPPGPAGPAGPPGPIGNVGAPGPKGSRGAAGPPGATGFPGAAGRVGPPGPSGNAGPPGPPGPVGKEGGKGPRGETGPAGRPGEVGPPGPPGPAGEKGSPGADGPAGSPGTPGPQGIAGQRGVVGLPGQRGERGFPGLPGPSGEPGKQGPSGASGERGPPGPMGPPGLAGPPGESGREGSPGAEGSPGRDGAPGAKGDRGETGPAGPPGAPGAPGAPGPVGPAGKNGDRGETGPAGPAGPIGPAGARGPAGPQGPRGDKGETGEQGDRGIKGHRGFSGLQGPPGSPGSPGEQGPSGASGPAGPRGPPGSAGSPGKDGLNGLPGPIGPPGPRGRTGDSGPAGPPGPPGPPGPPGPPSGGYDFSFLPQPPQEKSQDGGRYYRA
T1 sequence (P02466 86-1125, chain 2 of 2): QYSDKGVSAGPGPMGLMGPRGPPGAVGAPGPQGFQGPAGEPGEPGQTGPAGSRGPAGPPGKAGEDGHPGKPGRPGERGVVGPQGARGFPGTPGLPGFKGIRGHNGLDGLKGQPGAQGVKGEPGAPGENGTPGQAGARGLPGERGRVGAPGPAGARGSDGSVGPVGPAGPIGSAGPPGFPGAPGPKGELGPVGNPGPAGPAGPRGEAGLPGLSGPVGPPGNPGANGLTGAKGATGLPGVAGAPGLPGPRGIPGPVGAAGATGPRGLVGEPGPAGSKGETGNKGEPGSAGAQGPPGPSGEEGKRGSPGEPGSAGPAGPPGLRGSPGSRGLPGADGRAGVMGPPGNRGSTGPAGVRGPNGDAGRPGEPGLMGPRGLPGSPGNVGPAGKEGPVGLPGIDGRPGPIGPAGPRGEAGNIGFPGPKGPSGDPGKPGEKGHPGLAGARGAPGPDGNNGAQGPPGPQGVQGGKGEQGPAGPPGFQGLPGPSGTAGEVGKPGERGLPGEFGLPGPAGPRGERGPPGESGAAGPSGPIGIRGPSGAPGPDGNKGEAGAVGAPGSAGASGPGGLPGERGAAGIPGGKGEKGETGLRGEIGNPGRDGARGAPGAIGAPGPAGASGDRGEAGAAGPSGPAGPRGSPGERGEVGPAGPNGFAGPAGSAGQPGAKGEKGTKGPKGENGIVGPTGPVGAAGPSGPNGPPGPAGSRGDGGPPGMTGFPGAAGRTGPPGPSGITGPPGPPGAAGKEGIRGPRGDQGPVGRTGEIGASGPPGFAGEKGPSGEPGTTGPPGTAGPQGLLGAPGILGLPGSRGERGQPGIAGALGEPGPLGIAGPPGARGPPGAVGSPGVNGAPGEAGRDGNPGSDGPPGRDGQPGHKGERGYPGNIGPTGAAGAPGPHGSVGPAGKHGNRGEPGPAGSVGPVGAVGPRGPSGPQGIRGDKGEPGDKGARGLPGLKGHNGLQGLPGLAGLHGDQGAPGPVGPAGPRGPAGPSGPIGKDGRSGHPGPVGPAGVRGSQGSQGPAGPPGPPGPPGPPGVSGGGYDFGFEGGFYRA
Chain of Collagen I (Gibco), coated on 96-well plates (P02454 152-1207, chain 1 of 2): as the sequence (P02454 152-1207, chain 1 of 2) above
Chain of Collagen I (Gibco), coated on 96-well plates (P02466 86-1125, chain 2 of 2): as the sequence (P02466 86-1125, chain 2 of 2) above

As usually defined, the Kd is the concentration at which binding is half-saturated. A high value points to weaker binding. On to LAIR-MSA (from UniProt P07724 25-608), for which, in the assay with collagen type I, the Kd was 17 nM.

B1: LAIRx-LAIRx-MSA^H464Q-his (other)
chain: QEGSLPDITIFPNSSLMISQGTFVTVVCSYSDKHDLYNMVALAKDGSTFMEKSTEPYKTEDEFEIGPVNETITGHYSCIYSKGITWSERSKTLELKVIKENVIQTPAPGPTSDTSWLKTYSIYQEGSLPDITIFPNSSLMISQGTFVTVVCSYSDKHDLYNMVALAKDGSTFMEKSTEPYKTEDEFEIGPVNETITGHYSCIYSKGITWSERSKTLELKVIKENVIQTPAPGPTSDTSWLKTYSIYEAHKSEIAHRYNDLGEQHFKGLVLIAFSQYLQKCSYDEHAKLVQEVTDFAKTCVADESAANCDKSLHTLFGDKLCAIPNLRENYGELADCCTKQEPERNECFLQHKDDNPSLPPFERPEAEAMCTSFKENPTTFMGHYLHEVARRHPYFYAPELLYYAEQYNEILTQCCAEADKESCLTPKLDGVKEKALVSSVRQRMKCSSMQKFGERAFKAWAVARLSQTFPNADFAEITKLATDLTKVNKECCHGDLLECADDRAELAKYMCENQATISSKLQTCCDKPLLKKAHCLSEVEHDTMPADLPAIAADFVEDQEVCKNYAEAKDVFLGTFLYEYSRRHPDYSVSLLLRLAKKYEATLEKCCAEANPPACYGTVLAEFQPLVEEPKNLVKTNCDLYEKLGEYGFQNAILVRYTQKAPQVSTPTLVEAARNLGRVGTKCCTLPEDQRLPCVEDYLSAILNRVCLLQEKTPVSEHVTKCCSGSLVERRPCFSALTVDETYVPKEFKAETFTFHSDICTLPEKEKQIKKQTALAELVKHKPKATAEQLKTVMDDFAQFLDTCCKAADKDTCFSTEGPNLVTRCKDALA
Take B1: the Kd in assay [1] is over 1000 nM.

B2: LAIR30.w.A V27A,D45G-MSA (other)
chain: QEGSLPDITIFPNSSLMISQGTFVTVACSYSDKHDLYNMVRLEKGGSTFMEKSTEPYKTEDEFEIGPVNETITGHYSCIYSKGITWSERSKTLELKVIKENVIQTPAPGPTSDTSWLKTYSIYEAHKSEIAHRYNDLGEQHFKGLVLIAFSQYLQKCSYDEHAKLVQEVTDFAKTCVADESAANCDKSLHTLFGDKLCAIPNLRENYGELADCCTKQEPERNECFLQHKDDNPSLPPFERPEAEAMCTSFKENPTTFMGHYLHEVARRHPYFYAPELLYYAEQYNEILTQCCAEADKESCLTPKLDGVKEKALVSSVRQRMKCSSMQKFGERAFKAWAVARLSQTFPNADFAEITKLATDLTKVNKECCHGDLLECADDRAELAKYMCENQATISSKLQTCCDKPLLKKAHCLSEVEHDTMPADLPAIAADFVEDQEVCKNYAEAKDVFLGTFLYEYSRRHPDYSVSLLLRLAKKYEATLEKCCAEANPPACYGTVLAEFQPLVEEPKNLVKTNCDLYEKLGEYGFQNAILVRYTQKAPQVSTPTLVEAARNLGRVGTKCCTLPEDQRLPCVEDYLSAILNRVCLLHEKTPVSEHVTKCCSGSLVERRPCFSALTVDETYVPKEFKAETFTFHSDICTLPEKEKQIKKQTALAELVKHKPKATAEQLKTVMDDFAQFLDTCCKAADKDTCFSTEGPNLVTRCKDALA
Turning to B2, in the assay with collagen type I (both partners purified), the Kd stood at 120 nM. In other words, the sub-micromolar range.

B3: LAIR30.w.E F63L-MSA (other)
chain: QEGSLPDITIFPNSSLMISQGTFVTVVCSYSDKHDLYNMVRLEKDGSTFMEKSTEPYKTEDELEIGPVNETITGHYSCIYSKGITWSERSKTLELKVIKENVIQTPAPGPTSDTSWLKTYSIYEAHKSEIAHRYNDLGEQHFKGLVLIAFSQYLQKCSYDEHAKLVQEVTDFAKTCVADESAANCDKSLHTLFGDKLCAIPNLRENYGELADCCTKQEPERNECFLQHKDDNPSLPPFERPEAEAMCTSFKENPTTFMGHYLHEVARRHPYFYAPELLYYAEQYNEILTQCCAEADKESCLTPKLDGVKEKALVSSVRQRMKCSSMQKFGERAFKAWAVARLSQTFPNADFAEITKLATDLTKVNKECCHGDLLECADDRAELAKYMCENQATISSKLQTCCDKPLLKKAHCLSEVEHDTMPADLPAIAADFVEDQEVCKNYAEAKDVFLGTFLYEYSRRHPDYSVSLLLRLAKKYEATLEKCCAEANPPACYGTVLAEFQPLVEEPKNLVKTNCDLYEKLGEYGFQNAILVRYTQKAPQVSTPTLVEAARNLGRVGTKCCTLPEDQRLPCVEDYLSAILNRVCLLHEKTPVSEHVTKCCSGSLVERRPCFSALTVDETYVPKEFKAETFTFHSDICTLPEKEKQIKKQTALAELVKHKPKATAEQLKTVMDDFAQFLDTCCKAADKDTCFSTEGPNLVTRCKDALA
B3 displayed a dissociation constant (Kd) with collagen type I (both partners purified) of 96 nM. The Kd values of the last two molecules are within 1.5-fold of each other.

B4: LAIR30.d.D E43A-MSA (other)
chain: QEGSLPDITIFPNSSLMISQGTFVTVVCSYSDKHDLYNMVRLAKDGSTFMEKSTEPYKTEDEFEIGPVNETITGHYSCIYSKGITWSERSKTLELKVIKENVIQTPAPGPTSDTSWLKTYSIYEAHKSEIAHRYNDLGEQHFKGLVLIAFSQYLQKCSYDEHAKLVQEVTDFAKTCVADESAANCDKSLHTLFGDKLCAIPNLRENYGELADCCTKQEPERNECFLQHKDDNPSLPPFERPEAEAMCTSFKENPTTFMGHYLHEVARRHPYFYAPELLYYAEQYNEILTQCCAEADKESCLTPKLDGVKEKALVSSVRQRMKCSSMQKFGERAFKAWAVARLSQTFPNADFAEITKLATDLTKVNKECCHGDLLECADDRAELAKYMCENQATISSKLQTCCDKPLLKKAHCLSEVEHDTMPADLPAIAADFVEDQEVCKNYAEAKDVFLGTFLYEYSRRHPDYSVSLLLRLAKKYEATLEKCCAEANPPACYGTVLAEFQPLVEEPKNLVKTNCDLYEKLGEYGFQNAILVRYTQKAPQVSTPTLVEAARNLGRVGTKCCTLPEDQRLPCVEDYLSAILNRVCLLHEKTPVSEHVTKCCSGSLVERRPCFSALTVDETYVPKEFKAETFTFHSDICTLPEKEKQIKKQTALAELVKHKPKATAEQLKTVMDDFAQFLDTCCKAADKDTCFSTEGPNLVTRCKDALA
The molecule B4 registered a Kd with collagen type I (both partners purified) of 220 nM.

B5: LAIR30.w.B F49S-MSA (other)
chain: QEGSLPDITIFPNSSLMISQGTFVTVVCSYSDKHDLYNMVRLEKDGSTSMEKSTEPYKTEDEFEIGPVNETITGHYSCIYSKGITWSERSKTLELKVIKENVIQTPAPGPTSDTSWLKTYSIYEAHKSEIAHRYNDLGEQHFKGLVLIAFSQYLQKCSYDEHAKLVQEVTDFAKTCVADESAANCDKSLHTLFGDKLCAIPNLRENYGELADCCTKQEPERNECFLQHKDDNPSLPPFERPEAEAMCTSFKENPTTFMGHYLHEVARRHPYFYAPELLYYAEQYNEILTQCCAEADKESCLTPKLDGVKEKALVSSVRQRMKCSSMQKFGERAFKAWAVARLSQTFPNADFAEITKLATDLTKVNKECCHGDLLECADDRAELAKYMCENQATISSKLQTCCDKPLLKKAHCLSEVEHDTMPADLPAIAADFVEDQEVCKNYAEAKDVFLGTFLYEYSRRHPDYSVSLLLRLAKKYEATLEKCCAEANPPACYGTVLAEFQPLVEEPKNLVKTNCDLYEKLGEYGFQNAILVRYTQKAPQVSTPTLVEAARNLGRVGTKCCTLPEDQRLPCVEDYLSAILNRVCLLHEKTPVSEHVTKCCSGSLVERRPCFSALTVDETYVPKEFKAETFTFHSDICTLPEKEKQIKKQTALAELVKHKPKATAEQLKTVMDDFAQFLDTCCKAADKDTCFSTEGPNLVTRCKDALA
In the case of B5, the Kd with collagen type I (both partners purified) was determined as 130 nM.

B6: LAIR30.w.C E51G-MSA (other)
chain: QEGSLPDITIFPNSSLMISQGTFVTVVCSYSDKHDLYNMVRLEKDGSTFMGKSTEPYKTEDEFEIGPVNETITGHYSCIYSKGITWSERSKTLELKVIKENVIQTPAPGPTSDTSWLKTYSIYEAHKSEIAHRYNDLGEQHFKGLVLIAFSQYLQKCSYDEHAKLVQEVTDFAKTCVADESAANCDKSLHTLFGDKLCAIPNLRENYGELADCCTKQEPERNECFLQHKDDNPSLPPFERPEAEAMCTSFKENPTTFMGHYLHEVARRHPYFYAPELLYYAEQYNEILTQCCAEADKESCLTPKLDGVKEKALVSSVRQRMKCSSMQKFGERAFKAWAVARLSQTFPNADFAEITKLATDLTKVNKECCHGDLLECADDRAELAKYMCENQATISSKLQTCCDKPLLKKAHCLSEVEHDTMPADLPAIAADFVEDQEVCKNYAEAKDVFLGTFLYEYSRRHPDYSVSLLLRLAKKYEATLEKCCAEANPPACYGTVLAEFQPLVEEPKNLVKTNCDLYEKLGEYGFQNAILVRYTQKAPQVSTPTLVEAARNLGRVGTKCCTLPEDQRLPCVEDYLSAILNRVCLLHEKTPVSEHVTKCCSGSLVERRPCFSALTVDETYVPKEFKAETFTFHSDICTLPEKEKQIKKQTALAELVKHKPKATAEQLKTVMDDFAQFLDTCCKAADKDTCFSTEGPNLVTRCKDALA
In turn, B6 returned a Kd with collagen type I (both partners purified) of 170 nM.

B7: LAIR30.w.F S90A-MSA (other)
chain: QEGSLPDITIFPNSSLMISQGTFVTVVCSYSDKHDLYNMVRLEKDGSTFMEKSTEPYKTEDEFEIGPVNETITGHYSCIYSKGITWSERAKTLELKVIKENVIQTPAPGPTSDTSWLKTYSIYEAHKSEIAHRYNDLGEQHFKGLVLIAFSQYLQKCSYDEHAKLVQEVTDFAKTCVADESAANCDKSLHTLFGDKLCAIPNLRENYGELADCCTKQEPERNECFLQHKDDNPSLPPFERPEAEAMCTSFKENPTTFMGHYLHEVARRHPYFYAPELLYYAEQYNEILTQCCAEADKESCLTPKLDGVKEKALVSSVRQRMKCSSMQKFGERAFKAWAVARLSQTFPNADFAEITKLATDLTKVNKECCHGDLLECADDRAELAKYMCENQATISSKLQTCCDKPLLKKAHCLSEVEHDTMPADLPAIAADFVEDQEVCKNYAEAKDVFLGTFLYEYSRRHPDYSVSLLLRLAKKYEATLEKCCAEANPPACYGTVLAEFQPLVEEPKNLVKTNCDLYEKLGEYGFQNAILVRYTQKAPQVSTPTLVEAARNLGRVGTKCCTLPEDQRLPCVEDYLSAILNRVCLLHEKTPVSEHVTKCCSGSLVERRPCFSALTVDETYVPKEFKAETFTFHSDICTLPEKEKQIKKQTALAELVKHKPKATAEQLKTVMDDFAQFLDTCCKAADKDTCFSTEGPNLVTRCKDALA
In the case of B7, binding with collagen type I (both partners purified) was characterised by a dissociation constant (Kd) of 63 nM.

B8: LAIRx-his (domain or fragment)
chain: QEGSLPDITIFPNSSLMISQGTFVTVVCSYSDKHDLYNMVALAKDGSTFMEKSTEPYKTEDEFEIGPVNETITGHYSCIYSKGITWSERSKTLELKVIKENVIQTPAPGPTSDTSWLKTYSIY
Regarding B8, the Kd in assay [1] is over 1000 nM.

B9: LAIR-his (domain or fragment)
chain: QEGSLPDITIFPNSSLMISQGTFVTVVCSYSDKHDLYNMVRLEKDGSTFMEKSTEPYKTEDEFEIGPVNETITGHYSCIYSKGITWSERSKTLELKVIKENVIQTPAPGPTSDTSWLKTYSIY
Consider B9, for which the Kd in assay [1] was found to be 102 nM.
